Assay results as given in article PMC7924340 (Toxins, 2021).

B1: α-Cobratoxin from cobra Naja kaouthia venom (natural protein)
chain: IRCFITPDITSKDCPNGHVCYTKTWCDAFCSIRGKRVDLGCAATCPTVKTGVDIQCCSTDNCNPFPTRKRP

Columns and labels:
[1] = biological target: Acetylcholine binding protein from Aplysia californica (Aplysia californica); assay: radioligand binding
[2] = biological target: T1, Acetylcholine binding protein from Lymnaea stagnalis (Lymnaea stagnalis, UniProt P58154 20-229); assay: radioligand binding; settings: both partners purified
T1 construct: also called AChBP L. stagnalis; L. stagnalis AChBP

Molecule | IC50 [1] [nM] | IC50 [2] [nM]
α-Cobratoxin from cobra Naja kaouthia venom (from UniProt P01391 1-71) (natural protein) | 385 | 
B1 |  | 25.4 ± 0.8
